# ± gives the uncertainty stated by the source.
# B1: POU domain, class 3, transcription factor 3, residues 408 to 463; numbered along this chain, P20264 (parent)
# chain: KKRTSIEVSVKGALESHFLKCPKPSAQEITNLADSLQLEKEVVRVWFCNRRQKEKR
# B2: Transcription factor SOX-4, residues 60 to 127; numbered along this chain, Q06945 (parent)
# chain: KRPMNAFMVWSQIERRKIMEQSPDMHNAEISKRLGKRWKLLKDSDKIPFIREAERLRLKHMADYPDYK
# Variants of: B1
# Assay: abundance fitness (aPCA) (normalised: wild type 0, dead -1); higher = more abundant; growth selection in yeast, the domain comes from the species named
# Settings: Homo sapiens
row,Variant,abundance fitness
1,KKRTSIEVSVKGALESHFLKCPKPSAQEITNLADSLQLEKEVVGVWFCNRRQKEKR [R44G],-0.165 ± 0.49
2,KKRTSIEVSVKGALESHFLKCPKPSAQEIHNLADSLQLEKEVVRVWFCNRRQKEKR [T30H],-0.153 ± 0.12
3,KKRTSIEVSVKGALESHFLKCPKPSAQEICNLADSLQLEKEVVRVWFCNRRQKEKR [T30C],-0.037 ± 0.12
4,KKRTSIEVSVKGALESAFLKCPKPSAQEITNLADSLQLEKEVVRVWFCNRRQKEKR [H17A],-0.055 ± 0.081
5,KKRTSIEVSVKGALESHFLPCPKPSAQEITNLADSLQLEKEVVRVWFCNRRQKEKR [K20P],-0.912 ± 0.17
6,KKRTSIEVSVKGALESHFLICPKPSAQEITNLADSLQLEKEVVRVWFCNRRQKEKR [K20I],-0.191 ± 0.1
7,KKRTSIEVSVKGALESHFLTCPKPSAQEITNLADSLQLEKEVVRVWFCNRRQKEKR [K20T],-0.256 ± 0.1
8,KYRTSIEVSVKGALESHFLKCPKPSAQEITNLADSLQLEKEVVRVWFCNRRQKEKR [K2Y],-0.391 ± 0.14
9,KKRTSIEVSVKGALESHFLKPPKPSAQEITNLADSLQLEKEVVRVWFCNRRQKEKR [C21P],-0.719 ± 0.13
10,KKRTSIEVSVKGALESHFLKCPKPSAQEITNLCDSLQLEKEVVRVWFCNRRQKEKR [A33C],-0.515 ± 0.11
11,KKRTSIEVSVKGALESHFLKCPKPSAQEITNLFDSLQLEKEVVRVWFCNRRQKEKR [A33F],-0.941 ± 0.17
12,KKRTSIEVSVKTALESHFLKCPKPSAQEITNLADSLQLEKEVVRVWFCNRRQKEKR [G12T],0.078 ± 0.099
13,KKRTSIEVSVKGALESHFLKCPKPSAQEITNLADSLQLEKEVVRVWFLNRRQKEKR [C48L],-0.047 ± 0.079
14,KKRTSIEVSVKGALESHFLKCPKPSAQEITNLADSLQLEKEVVRVWFNNRRQKEKR [C48N],0.211 ± 0.2
15,KKRTSIEVSVKGALESHFLKCPKPSAQEITNLADSLQLEKEVVRVWFTNRRQKEKR [C48T],0.032 ± 0.1
16,KKRDSIEVSVKGALESHFLKCPKPSAQEITNLADSLQLEKEVVRVWFCNRRQKEKR [T4D],-0.279 ± 0.14
17,KKRTSIEVSVKGALESHFLKCPKPSAQEITNLADSLQLEKEHVRVWFCNRRQKEKR [V42H],-0.34 ± 0.18
18,KKRTSIEVSVKGALESHFRKCPKPSAQEITNLADSLQLEKEVVRVWFCNRRQKEKR [L19R],-0.024 ± 0.059
19,KKRTSIEVSVKGALESHFNKCPKPSAQEITNLADSLQLEKEVVRVWFCNRRQKEKR [L19N],0.014 ± 0.13
20,KKRTSIEVSVKGADESHFLKCPKPSAQEITNLADSLQLEKEVVRVWFCNRRQKEKR [L14D],-0.697 ± 0.22
21,KKRTSIEVSVKGAPESHFLKCPKPSAQEITNLADSLQLEKEVVRVWFCNRRQKEKR [L14P],-1 ± 0.18

row,Variant,abundance fitness
1,KKRTSIEVSVKGAEESHFLKCPKPSAQEITNLADSLQLEKEVVRVWFCNRRQKEKR [L14E],-1.11 ± 0.16
2,KKRTSIEVSVKGALESHFLKCPKPSAQEITNLADELQLEKEVVRVWFCNRRQKEKR [S35E],-0.032 ± 0.11
3,KKRTSIEVSVKGALESHFLKCPKPSAQEITNLADKLQLEKEVVRVWFCNRRQKEKR [S35K],0.162 ± 0.12
4,KKRTSIEVSVKGALESHFLKCPKPSAQEITNLADNLQLEKEVVRVWFCNRRQKEKR [S35N],-0.078 ± 0.13
5,KKRTSIEVSVKGALESHFLKCPKPSAQEITNLADPLQLEKEVVRVWFCNRRQKEKR [S35P],-0.76 ± 0.14
6,KKRTSIEVSPKGALESHFLKCPKPSAQEITNLADSLQLEKEVVRVWFCNRRQKEKR [V10P],-0.472 ± 0.13
7,KKRTSIEVSGKGALESHFLKCPKPSAQEITNLADSLQLEKEVVRVWFCNRRQKEKR [V10G],-0.241 ± 0.066
8,KKRTSIEVSIKGALESHFLKCPKPSAQEITNLADSLQLEKEVVRVWFCNRRQKEKR [V10I],-0.066 ± 0.096
9,KKRTSIEVSEKGALESHFLKCPKPSAQEITNLADSLQLEKEVVRVWFCNRRQKEKR [V10E],0.154 ± 0.13
10,KKRTSNEVSVKGALESHFLKCPKPSAQEITNLADSLQLEKEVVRVWFCNRRQKEKR [I6N],-0.234 ± 0.19
11,KKRTSEEVSVKGALESHFLKCPKPSAQEITNLADSLQLEKEVVRVWFCNRRQKEKR [I6E],-0.091 ± 0.12
12,KKRTSTEVSVKGALESHFLKCPKPSAQEITNLADSLQLEKEVVRVWFCNRRQKEKR [I6T],0.058 ± 0.13
13,KKRTSIEVSVKGALESHFLKCPKPSAQEITNCADSLQLEKEVVRVWFCNRRQKEKR [L32C],-1.07 ± 0.41
14,KKRTSIEVSVKGALESHFLKCAKPSAQEITNLADSLQLEKEVVRVWFCNRRQKEKR [P22A],-0.121 ± 0.2
15,KKRTSIEVSVKGALEEHFLKCPKPSAQEITNLADSLQLEKEVVRVWFCNRRQKEKR [S16E],0.006 ± 0.091
16,KKRTSIEVSVKGALESHFLKCPKPSAQEITNLADSLQPEKEVVRVWFCNRRQKEKR [L38P],-0.951 ± 0.17
17,KKRTSIEVSVKGALESHFLKCPKPSAQEITNLADSLQLELEVVRVWFCNRRQKEKR [K40L],-0.103 ± 0.092
18,KKRTSIEVSVKGALESHFLKCPKPSAQEITNLADSSQLEKEVVRVWFCNRRQKEKR [L36S],-0.866 ± 0.12
19,KKRTSIEVSVKGALESHFLKCPKPSAQEITNLADSLQLKKEVVRVWFCNRRQKEKR [E39K],-0.258 ± 0.092
20,KKRTSIEVSVKGALESHFLKCPKPSAQEITNLADSLQLEKEVVRVWFCNRRQKEAR [K55A],-0.038 ± 0.098
21,KKRTSIEVSVKGALESHFLKCPKPSAQEITNLADSLQLEKEVVRVWFCNRRQKEDR [K55D],-0.079 ± 0.12

row,Variant,abundance fitness
1,KKRTSIEVSVKGALESHWLKCPKPSAQEITNLADSLQLEKEVVRVWFCNRRQKEKR [F18W],-0.5 ± 0.096
2,KKRTSIEVSVKGALESHALKCPKPSAQEITNLADSLQLEKEVVRVWFCNRRQKEKR [F18A],-0.84 ± 0.091
3,KKRTSIEVSVKGALESHTLKCPKPSAQEITNLADSLQLEKEVVRVWFCNRRQKEKR [F18T],-0.922 ± 0.14
4,KKRTKIEVSVKGALESHFLKCPKPSAQEITNLADSLQLEKEVVRVWFCNRRQKEKR [S5K],0.097 ± 0.11
5,KKRTSIEVSVKGALESHFLKCPKDSAQEITNLADSLQLEKEVVRVWFCNRRQKEKR [P24D],-0.802 ± 0.17
6,KKRTSIEVSVKGALESHFLKCPKPSAQEITNLADSLQLEKEVVRVWFCNKRQKEKR [R50K],-0.364 ± 0.14
7,KKRTSIEVSVKGALESHFLKCPKPSAQEITNLADSLQLEKEVVRVWFCNRRQHEKR [K53H],-0.194 ± 0.14
8,KKRTSIEVSVKGALESHFLKCPKPSQQEITNLADSLQLEKEVVRVWFCNRRQKEKR [A26Q],-0.024 ± 0.11
9,KKFTSIEVSVKGALESHFLKCPKPSAQEITNLADSLQLEKEVVRVWFCNRRQKEKR [R3F],-0.119 ± 0.15
10,KKRTSIEVSVKGALSSHFLKCPKPSAQEITNLADSLQLEKEVVRVWFCNRRQKEKR [E15S],-1 ± 0.3
11,KKRTSIEVSVYGALESHFLKCPKPSAQEITNLADSLQLEKEVVRVWFCNRRQKEKR [K11Y],0.067 ± 0.12
12,KKRTSIEVSVWGALESHFLKCPKPSAQEITNLADSLQLEKEVVRVWFCNRRQKEKR [K11W],-0.116 ± 0.089
13,KKRTSIEVDVKGALESHFLKCPKPSAQEITNLADSLQLEKEVVRVWFCNRRQKEKR [S9D],0.038 ± 0.14
14,KKRTSIEVWVKGALESHFLKCPKPSAQEITNLADSLQLEKEVVRVWFCNRRQKEKR [S9W],-0.192 ± 0.12
15,KKRTSIEVSVKGALESHFLKCPKPSAQEITNLADSLQLEKEVVRWWFCNRRQKEKR [V45W],-0.162 ± 0.087
16,KKRTSIEVSVKGALESHFLKCPKPSAQEITNLADSLQLEKEVTRVWFCNRRQKEKR [V43T],-0.595 ± 0.14
17,KKRTSIEVSVKGALESHFLKCPKPSAQEITNLADSLQLEKEVLRVWFCNRRQKEKR [V43L],-0.382 ± 0.085
18,KKRTSIRVSVKGALESHFLKCPKPSAQEITNLADSLQLEKEVVRVWFCNRRQKEKR [E7R],-0.057 ± 0.063
19,KKRTSIIVSVKGALESHFLKCPKPSAQEITNLADSLQLEKEVVRVWFCNRRQKEKR [E7I],-0.157 ± 0.069
20,KKRTSIEVSVKGALESHFLKCPKPSAQEITNLADSLQLEKAVVRVWFCNRRQKEKR [E41A],-0.344 ± 0.072
21,KKRTSIEVSVKGGLESHFLKCPKPSAQEITNLADSLQLEKEVVRVWFCNRRQKEKR [A13G],-0.46 ± 0.067

# Variants of: B2
# Assay: as above
# Settings: Homo sapiens
row,Variant,abundance fitness
1,Y64E,0.006 ± 0.083
2,Y64R,0.035 ± 0.068
3,Y64K,0.128 ± 0.095
4,Y64A,-0.094 ± 0.093
5,Y64G,-0.008 ± 0.073
6,Y64I,-0.109 ± 0.18
7,Y64N,0.124 ± 0.12
8,Y64Q,-0.112 ± 0.13
9,Y64S,0.063 ± 0.056
10,Y64F,-0.156 ± 0.094
11,Y64P,-0.009 ± 0.061
12,Y64V,0.02 ± 0.063
13,Y64C,-0.056 ± 0.2
14,Y64M,-0.061 ± 0.078
15,Y64L,0.009 ± 0.046
16,Y64T,0.059 ± 0.065
17,Y64W,-0.25 ± 0.077
18,D66G,-0.08 ± 0.07
19,D66V,-0.157 ± 0.049
20,D66P,-0.067 ± 0.079
21,D66K,-0.11 ± 0.082
22,D66W,-0.325 ± 0.13
23,D66Y,-0.537 ± 0.26

# Source: the Human Domainome abundance scans (Beltran et al. 2025)
